Test results reported in patent US20220289825A1 (NANJING SHUNXIN PHARMACEUTICALS CO LTD OF CHIATAI TIANQING …, published 2022).
“And” between values parts separate entries of the source, which are not always exact repeats. Equal entries are not always repeated.

Target: PD-L1 on CHO-PDL1-CD3L cells (UniProt Q9NZQ7 19-290, limits assumed)
Assay: cell-based or functional assay

Sequence of PD-L1 on CHO-PDL1-CD3L cells (Q9NZQ7 19-290 limits assumed): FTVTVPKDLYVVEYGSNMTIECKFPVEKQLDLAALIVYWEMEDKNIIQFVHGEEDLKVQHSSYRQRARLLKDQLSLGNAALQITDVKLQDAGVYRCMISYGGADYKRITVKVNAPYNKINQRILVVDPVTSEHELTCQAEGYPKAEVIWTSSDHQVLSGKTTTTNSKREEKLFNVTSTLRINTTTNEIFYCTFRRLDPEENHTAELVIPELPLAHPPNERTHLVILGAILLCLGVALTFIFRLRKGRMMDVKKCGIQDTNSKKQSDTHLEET

B1: PD-L1 antibody (humanized 5G11-IgG1 antibody of CN107001463) (antibody, V domains shown)
VH: QITLKESGPTLVKPTQTLTLTCTVSGFSLSTYGVHWIRQPPGKALEWLGVIWRGVTTDYNAAFMSRLTITKDNSKNQVVLTMNNMDPVDTATYYCARLGFYAMDYWGQGTLVTVSS
VL: DIQMTQSPSSLSASVGDRVTITCKASQSVSNDVAWYQQKPGKAPKLLIYYAANRYTGVPDRFSGSGYGTDFTFTISSLQPEDIATYFCQQDYTSPYTFGQGTKLEIKR
  Biological activity (EC50 of reference sample/EC50 of test sample x 100%): 100%
  EC50 (nmol/L), reporter gene assay (CHO-PDL1-CD3L + Jurkat-PD-1-NFAT, luciferase RLU): 4.6 nmol/L and 4.15 nmol/L
